In patent US20160340443A1:

What was measured:
[1] = target: soluble single-chain FcRn (human) (UniProt P55899); assay: SPR (BIACORE X), scFcRn amine-coupled to CM5 chip, antibody as analyte 25-400 nM, pH 6.0, two-state reaction model, Run 2
[2] = target: soluble single-chain FcRn (human) (UniProt P55899); assay: SPR (BIACORE X), scFcRn amine-coupled to CM5 chip, antibody as analyte 25-400 nM, pH 6.0, two-state reaction model, Run 1
[3] = target: soluble single-chain FcRn (human) (UniProt P55899); assay: SPR (BIACORE X), scFcRn amine-coupled to CM5 chip, pH 6.0, two-state reaction model, mean of three runs
[4] = target: soluble single-chain FcRn (human) (UniProt P55899); assay: SPR (BIACORE X), scFcRn amine-coupled to CM5 chip, antibody as analyte 25-400 nM, pH 6.0, two-state reaction model, Run 3

soluble single-chain FcRn (human), sequence (P55899 24-297 limits assumed, chain 1 of 2): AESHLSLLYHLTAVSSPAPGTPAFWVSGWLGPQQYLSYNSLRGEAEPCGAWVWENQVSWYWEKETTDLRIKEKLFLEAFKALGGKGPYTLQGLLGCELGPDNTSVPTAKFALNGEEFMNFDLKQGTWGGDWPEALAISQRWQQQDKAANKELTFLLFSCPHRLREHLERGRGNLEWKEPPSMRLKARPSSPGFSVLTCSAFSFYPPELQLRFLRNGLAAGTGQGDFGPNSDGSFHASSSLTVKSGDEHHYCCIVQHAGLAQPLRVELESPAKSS
soluble single-chain FcRn (human), sequence (P61769 21-119 limits assumed, chain 2 of 2, further chain): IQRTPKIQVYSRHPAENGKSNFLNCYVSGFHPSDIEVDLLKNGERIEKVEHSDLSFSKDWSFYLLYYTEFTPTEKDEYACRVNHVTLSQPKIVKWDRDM

Substance: epratuzumab (antibody)
- Kd [1]: 17.9 nM
- Kd [2]: 15 nM
- Kd [3]: 16.3 nM
- Kd [4]: 15.8 nM
